Experimental data from patent US20240317840A1.

Legend:
[1] = target: HBsAg of HBV genotype D, serotype ayw (Hepatitis B virus); assay: cell-based or functional assay
[2] = target: HBsAg AY serotype (Hepatitis B virus); assay: SPR epitope binning; competitor (1st, saturating Ab): NOV3842
[3] = target: HBsAg AD serotype (Hepatitis B virus); assay: as above
[4] = target: HBsAg AY serotype (Hepatitis B virus); assay: SPR epitope binning; competitor (1st, saturating Ab): CR8087
[5] = target: HBsAg AD serotype (Hepatitis B virus); assay: as above
[6] = target: HBsAg AY serotype (Hepatitis B virus); assay: SPR epitope binning; competitor (1st, saturating Ab): NOV3540
[7] = target: HBsAg AD serotype (Hepatitis B virus); assay: as above
[8] = target: HBsAg AY serotype (Hepatitis B virus); assay: SPR epitope binning; competitor (1st, saturating Ab): HBC34 (self)
[9] = target: HBsAg AD serotype (Hepatitis B virus); assay: as above
[10] = target: HBsAg AY serotype (Hepatitis B virus); assay: SPR epitope binning; competitor (1st, saturating Ab): NOV3832
[11] = target: HBsAg AD serotype (Hepatitis B virus); assay: as above
[12] = target: HBsAg AY serotype (Hepatitis B virus); assay: SPR epitope binning; competitor (1st, saturating Ab): NOV3841
[13] = target: HBsAg AD serotype (Hepatitis B virus); assay: as above

Row | binding of second antibody (% of its binding as first antibody) [2] | binding of second antibody (% of its binding as first antibody) [3] | binding of second antibody (% of its binding as first antibody) [4] | binding of second antibody (% of its binding as first antibody) [5] | binding of second antibody (% of its binding as first antibody) [6] | binding of second antibody (% of its binding as first antibody) [7] | binding of second antibody (% of its binding as first antibody) [8] | binding of second antibody (% of its binding as first antibody) [9] | binding of second antibody (% of its binding as first antibody) [10] | binding of second antibody (% of its binding as first antibody) [11] | binding of second antibody (% of its binding as first antibody) [12] | binding of second antibody (% of its binding as first antibody) [13] | Substance | Virus neutralization EC50 [1]
1 | – | – | – | – | – | – | – | – | – | – | – | – | Neg. Control (antibody) | > 500 nM
2 | 134 | 121 | 166 | 146 | 131 | 121 | 0 | 0 | 257 | 126 | 151 | 124 | HBC34 (antibody) | –
